From US20250145722A1 (TRUEBINDING, published 2025)

Columns and labels:
[1] = target: T1, human Galectin-3 (Gal3), full-length recombinant (human, UniProt P17931 2-250); assay: ELISA: Gal3 coated at 2 or 3 µg/ml, protein at 2 or 3 µg/ml, anti-human IgG-HRP, A450
T1 construct: treated here as one molecule; also called hGAL3; hGal3

[2] = target: T1, human Galectin-3 (Gal3), full-length …; assay: not stated (FIG. 50)
mouse Gal3 = mouse Gal3 (mouse, UniProt P16110 2-264, limits assumed); assay: not stated (FIG. 50)
Chain of mouse Gal3 (P16110 2-264 limits assumed): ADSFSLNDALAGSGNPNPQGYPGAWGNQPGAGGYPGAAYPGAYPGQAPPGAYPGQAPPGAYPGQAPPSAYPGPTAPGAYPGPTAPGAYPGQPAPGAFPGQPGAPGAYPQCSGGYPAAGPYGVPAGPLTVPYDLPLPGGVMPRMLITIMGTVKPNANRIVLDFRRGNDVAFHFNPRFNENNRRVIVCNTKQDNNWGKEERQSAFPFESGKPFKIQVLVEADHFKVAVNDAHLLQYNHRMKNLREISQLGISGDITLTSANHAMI

[3] = target: T1, human Galectin-3 (Gal3), full-length …; assay: blocking ELISA, Gal3 coated, biotin-TLR4
[4] = target: T1, human Galectin-3 (Gal3), full-length …; assay: blocking ELISA, Gal3 coated, TREM2-His
[5] = target: T1, human Galectin-3 (Gal3), full-length …; assay: blocking ELISA, Gal3 coated, biotin-TGFβR2
[6] = target: T1, human Galectin-3 (Gal3), full-length …; assay: blocking ELISA, Gal3 coated, biotin-Tau aggregates
[7] = target: T1, human Galectin-3 (Gal3), full-length …; assay: blocking ELISA, Gal3 coated, biotin-APP695
[8] = target: T1, human Galectin-3 (Gal3), full-length …; assay: blocking ELISA, Gal3 coated, biotin-Abeta42 peptide
[9] = target: T1, human Galectin-3 (Gal3), full-length …; assay: blocking ELISA, Gal3 coated, biotin-Abeta42 oligomer
[10] = target: T1, human Galectin-3 (Gal3), full-length …; assay: cell-based or functional assay
[11] = target: T1, human Galectin-3 (Gal3), full-length …; assay: ELISA: Gal3 coated, His-tagged TREM2 detected with anti-6xHis-HRP; concentrations of the bars not printed on the sheet
[12] = target: T1, human Galectin-3 (Gal3), full-length …; assay: blocking ELISA, Gal3 coated, EGFR-Fc, antibody 20 µg/ml
[13] = target: T1, human Galectin-3 (Gal3), full-length …; assay: blocking ELISA, Gal3 coated, PDGFR beta-Fc, antibody 20 µg/ml
[14] = target: T1, human Galectin-3 (Gal3), full-length …; assay: blocking ELISA, Gal3 coated, VEGFR3-Fc, antibody 20 µg/ml
[15] = target: T1, human Galectin-3 (Gal3), full-length …; assay: blocking ELISA, Gal3 coated, PDGFR alpha-Fc, antibody 20 µg/ml
[16] = target: T1, human Galectin-3 (Gal3), full-length …; assay: blocking ELISA, Gal3 coated, biotin-α-synuclein aggregates
[17] = target: T1, human Galectin-3 (Gal3), full-length …; assay: not stated. Exponent is printed without a minus sign; value taken as a negative power of ten because the column is a KD in M
[18] = target: T1, human Galectin-3 (Gal3), full-length …; assay: titration of the antibody on a panel of galectins, read as OD450; set-up not given, species of the galectins not given

T1 sequence (P17931 2-250 limits assumed): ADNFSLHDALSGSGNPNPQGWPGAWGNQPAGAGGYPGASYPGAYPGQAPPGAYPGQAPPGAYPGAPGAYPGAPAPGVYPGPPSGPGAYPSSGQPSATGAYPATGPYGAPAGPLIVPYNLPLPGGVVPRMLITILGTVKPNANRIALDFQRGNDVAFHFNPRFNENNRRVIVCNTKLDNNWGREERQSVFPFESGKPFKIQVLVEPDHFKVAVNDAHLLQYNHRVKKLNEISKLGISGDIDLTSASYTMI

B1: recombinant human TNF sRI (R&D Systems, 372-RI/CF) (receptor, UniProt P19438 30-211, looked up)
chain: LVPHLGDREKRDSVCPQGKYIHPQNNSICCTKCHKGTYLYNDCPGPGQDTDCRECESGSFTASENHLRHCLSCSKCRKEMGQVEISSCTVDRDTVCGCRKNQYRHYWSENLFQCFNCSLCLNGTVHLSCQEKQNTVCTCHAGFFLRENECVSCSNCKKSLECTKLCLPQIENVKGTEDSGTT
notes: Detected with anti-human IgG
binding result [1]: binds

B2: TB006 (antibody, V domains shown)
VH: QVQLVQSGAEVKKPGASVKVSCKASGYSFTNYYMHWVRQAPGQRLEWMGWIYPGSGNTNYNEKFQGRVTITADTSASTAYMELSSLRSEDTAVYYCSTAPGGFDVWGQGTTVTVSS
VL: DIVMTQTPLSLSVTPGQPASISCKSSKSLLHSDGITYLYWYLQKPGQSPQLLIYRMSNLASGVPDRFSGSGSGTDFTLKISRVEAEDVGVYYCAQMLEFPLTFGQGTKLEIKR
notes: Humanized variant derived from murine 4A11.2B5; also called 4A11.H3L1; IMT006
Kd [2]: 8.9 nM
Kd (mouse Gal3): 40000 nM
% blocking of Gal3-TLR4 binding [3]: > 90%
% blocking of Gal3-TREM2 binding [4]: > 90%
IC50 [5]: 11.5 nM
% blocking of Gal3-Tau aggregates binding [6]: > 90%
% blocking of Gal3-APP695 binding [7]: > 90%
% blocking of Gal3-Abeta42 peptide binding [8]: > 90%
% blocking of Gal3-Abeta42 oligomer binding [9]: > 90%
IC50 [9]: 2.38 nM
IC50 of TGF-β-induced pro-collagen production in LX-2 cells [10]: 0.23 µg/mL

B3: recombinant human TREM2 protein (Sino Biological, 11084-H08H) (receptor, UniProt Q9NZC2 19-174, looked up)
chain: HNTTVFQGVAGQSLQVSCPYDSMKHWGRRKAWCRQLGEKGPCQRVVSTHNLWLLSFLRRWNGSTAITDDTLGGTLTITLRNLQPHDAGLYQCQSLHGSEADTLRKVLVEVLADPLDHRDAGDLWFPGESESFEDAHVEHSISRSLLEGEIPFPPTS
notes: Detected with anti-6x His tag antibody, so His-tagged; tag not described
binding result [11]: binds

B4: 24D12.2H9 (antibody, human IgG4 S228P, kappa, V domains shown)
VH: QVQLKQSGPGLVQPSQSLSITCTVSGFSLTSYGVHWVRQAPGKGLEWLGVIWSGGSTDYNAAFMSRLSISKDNSKSQVFFKMNSLQADDTAIYYCAKSPDGYDVAWFGYWGQGTLVTVSA
VL: DIVMTQSHKFMSTSVGDRVSITCKASQDVRTAVAWYQQKPGQSPKLLIYWASTRHTGVPDRFTGSGSGTDFTLTLSNVQSEDLADYFCQQYSSYPWTFGGGTKLEIKR
% blocking of Gal3-EGFR binding [12]: < 30%
% blocking of Gal3-PDGFR beta binding [13]: < 30%
% blocking of Gal3-VEGFR3 binding [14]: < 30%
% blocking of Gal3-PDGFR alpha binding [15]: < 30%

B5: mTB001 (antibody, mouse IgG2a, V domains shown)
VH: QIQLVQSGPELKKPGETVKISCKASGYTFTNYGMNWVKQAPGKGLKWMGWINTNTGEPTYVEEFKGRFAFSLETSASTAYLQINNLKNEDTATYFCAPYDNFFAYWGQGTLVTVSA
VL: DIVITQDELSNPVTSGESVSISCRSSKSLLYKDGKTYLNWFLQRPGQSPQLLIYLMSTHASGVSDRFSGSGSGTDFTLEISRVKAEDVGVYYCQQLVDYPLTFGAGTKLELKR
notes: also called mIMT001; murine IMT001
% blocking of Gal3-EGFR binding [12]: > 70%
% blocking of Gal3-PDGFR beta binding [13]: > 70%
% blocking of Gal3-PDGFR alpha binding [15]: > 70%
decrease in TGFβ induction of ColA1 mRNA in LX2 cells (qRT-PCR) [10]: 63%

B6: 15G7.2A7 (antibody, human IgG4 S228P, kappa, V domains shown)
VH: EVQLQQSGPELVKPGASVKISCKASGYTFTDYYMNWVKQSHGKSLEWIGDINPNNGGTNYNQKFKGKATLTVDKSSSTAYMELRSLTSEDSAVYYCTSGYGFPYWGQGTLVTVSA
VL: DIQMNQSPSSLSASLGDTISITCRASQNINIWLSWYQQKPGNIPQLLIYKASNLHTGVPSRFSGSGSGTDFTLTISSLQPEDIATYYCLQGQSYPLTFGAGTKLVMKR
notes: also called 15FG7.2A7
% blocking of Gal3-TLR4 binding [3]: > 90%
% blocking of Gal3-α-synuclein aggregates binding [16]: > 90%
% blocking of Gal3-TREM2 binding [4]: > 90%
% blocking of Gal3-Tau aggregates binding [6]: > 90%
% blocking of Gal3-APP695 binding [7]: > 90%
% blocking of Gal3-Abeta42 peptide binding [8]: > 90%

B7: F847C.10B9 (antibody, human IgG4 S228P, kappa)
heavy: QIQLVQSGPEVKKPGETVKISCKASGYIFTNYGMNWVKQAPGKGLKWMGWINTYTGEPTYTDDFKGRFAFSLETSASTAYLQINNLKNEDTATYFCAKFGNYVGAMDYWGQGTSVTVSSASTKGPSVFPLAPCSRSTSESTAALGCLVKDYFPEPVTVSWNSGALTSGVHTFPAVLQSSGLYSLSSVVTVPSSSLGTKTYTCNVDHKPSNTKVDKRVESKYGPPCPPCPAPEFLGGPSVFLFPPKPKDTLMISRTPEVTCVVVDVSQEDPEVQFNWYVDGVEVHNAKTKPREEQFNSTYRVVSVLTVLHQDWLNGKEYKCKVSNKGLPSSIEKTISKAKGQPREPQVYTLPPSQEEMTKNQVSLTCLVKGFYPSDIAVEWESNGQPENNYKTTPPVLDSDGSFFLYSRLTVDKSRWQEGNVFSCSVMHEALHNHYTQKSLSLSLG
light: DIRMTQSPSSLSASLGDTITITCHASQNINVWLSWYQQKPGNIPKLLIYKASNLHTGVPSRFSGSGSGTGFTLTISSLQPEDIATYYCQQGQSYPYTFGGGTKLELKRTVAAPSVFIFPPSDEQLKSGTASVVCLLNNFYPREAKVQWKVDNALQSGNSQESVTEQDSKDSTYSLSSTLTLSKADYEKHKVYACEVTHQGLSSPVTKSFNRGEC
notes: also called 847.10B9
% blocking of Gal3-α-synuclein aggregates binding [16]: > 90%
% blocking of Gal3-Tau aggregates binding [6]: > 90%
Kd [17]: 13600 nM

B8: F847C.12F12 (antibody, V domains shown)
VH: QIQLVQSGPELKKPGETVKISCKASGYTFTNYGMNWVKQAPGKGLKWMGWINTYTGEPTYVDDFKGRFAFSLETSASTAYLRINNLKNEDTATYFCAKFGNYVGAMDYWGQGTSVTVSS
VL: DIQVIQSPSSLSASLGDTITITCHASQNINVWLSWYQQKPGNIPKLLIYKASNLHTGVPSRFSGSGSGTGFTLTISSLQPEDIATYYCQQGQSYPYTFGGGTKLELKR
notes: also called 84712F12
% blocking of Gal3-α-synuclein aggregates binding [16]: > 90%
% blocking of Gal3-Tau aggregates binding [6]: > 90%
Kd [17]: 19.2 nM

B9: 13G4.2F8 (antibody, human IgG4 S228P, kappa, V domains shown)
VH: QVQLQQPGAELVKPGASVKLSCKASGYTFTSYWMHWVKQRPGQGLEWIGMIHPNSGSTDYNEKFKNKATLNVDKSSSTAYIQLSSLTSEDSAVYYCTRWGIYYYARDYWGQGTTLTVSS
VL: DIVMTQSQKFMSTSVGERVSITCKASQNVGTNVAWYQQKAGQSLELLIYGASNRHTGVPDRFTGSGSGTDFTLTITNVQSEDMTNYFCEQYSNFPLTFGAGTKLELKR
% blocking of Gal3-EGFR binding [12]: < 30%
% blocking of Gal3-PDGFR beta binding [13]: < 30%
% blocking of Gal3-VEGFR3 binding [14]: < 30%
% blocking of Gal3-α-synuclein aggregates binding [16]: < 50%
% blocking of Gal3-PDGFR alpha binding [15]: < 30%
% blocking of Gal3-Tau aggregates binding [6]: < 50%

B10: F847C.11B1 (antibody, human IgG4 S228P, kappa, V domains shown)
VH: EVQLQQSGPELVKPGASVKISCKASGNTFTDHNMHWVKQSHGKSLEWIGYIYPYNGGTGYNQKFKSKATLTVDNSSSTVYMELRSLTSEDSAVYYCARGEYDYLAWFAYWGQGTLVTVSA
VL: EIVLTQSPASLSVTTGEKVTIRCITSIDIDDDMNWYQQKPGEPPKLLISEGNTLRPGVPSRFSSSGYGTDFVFTIENTLSEDVADYYCLQSDNKPLTFGAGTKLELKR
notes: also called 847.11B1
% blocking of Gal3-α-synuclein aggregates binding [16]: < 50%
% blocking of Gal3-TREM2 binding [4]: < 47%
% blocking of Gal3-Tau aggregates binding [6]: < 50%
Kd [17]: 4.29 nM
% blocking of Gal3-Abeta42 peptide binding [8]: < 46%
% blocking of Gal3-Abeta42 oligomer binding [9]: < 26%

B11: TB001 (antibody, IgG4, V domains shown)
VH: QVQLVQSGSELKKPGASVKVSCKASGYTFTNYGMNWVRQAPGQGLKWMGWINTNTGEPTYVEEFTGRFVFSLETSVSTAYLQISSLKAEDTAVYFCAPYDNFFAYWGQGTTVTVSS
VL: DIVLTQSPLSLPVTPGEPASISCRSSKSLLYKDGKTYLNWFLQKPGQSPQLLIYLMSTHASGVPDRFSGSGSGTDFTLKISRVEAEDVGVYYCQQLVDYPLTFGGGTKLEIKR
notes: also called IMT001; IMT001-4
Kd [2]: 3.6 nM
Kd (mouse Gal3): 2.3 nM
% blocking of Gal3-TLR4 binding [3]: > 90%
% blocking of Gal3-TREM2 binding [4]: > 90%
EC50 (read off the curve) [18]: ~0.007 µg/mL
IC50 [5]: 12.8 nM
% blocking of Gal3-APP695 binding [7]: > 90%
% blocking of Gal3-Abeta42 peptide binding [8]: > 90%
% blocking of Gal3-Abeta42 oligomer binding [9]: > 90%
IC50 [9]: 3.17 nM
IC50 of TGF-β-induced pro-collagen production in LX-2 cells [10]: 0.25 µg/mL

B12: 4G2.2G6 (antibody, human IgG4 S228P, kappa, V domains shown)
VH: QIQLVQSGPDLKKPGETVKISCKASGYTFTTYVMSWVKQAPGKDLKWMGWINTHSGVPTYADDFKGRFDFSLETSANTAFLQINNLKNEDTATYFCTRDGNDGDAMDNWGQGTSVTVSS
VL: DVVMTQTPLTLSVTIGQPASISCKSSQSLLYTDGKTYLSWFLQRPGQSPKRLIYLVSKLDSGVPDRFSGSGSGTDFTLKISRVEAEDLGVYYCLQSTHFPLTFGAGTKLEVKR
% blocking of Gal3-VEGFR3 binding [14]: < 30%
